Patent US20250019428A1 (Janssen / Centocor, published 2025)
Residue numbers refer to the chain shown, from its start. Names and notes keep the numbering of the source.

T1: human lymphotoxin (human, UniProt P01374 35-205, limits assumed)
T1 sequence (looked up): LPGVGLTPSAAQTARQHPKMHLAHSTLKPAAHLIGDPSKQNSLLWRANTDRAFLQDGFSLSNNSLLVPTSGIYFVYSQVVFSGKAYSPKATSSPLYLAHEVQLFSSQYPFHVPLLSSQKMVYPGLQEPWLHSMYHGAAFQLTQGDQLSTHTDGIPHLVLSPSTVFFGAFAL

B1: GenTNV148.26.12 (antibody, human IgG1, kappa, V domains shown)
VH: QVQLVESGGGVVQPGRSLRLSCAASGFIFSSYAMHWVRQAPGNGLEWVAFMSYDGSNKKYADSVKGRFTISRDNPKNTLYLQMNSLRAEDTAVYYCARDRGIAAGGNYYYYGMDVWGQGTTVTVSS
VL: EIVLTQSPATLSLSPGERATLSCRASQSVYSYLAWYQQKPGQAPRLLIYDASNRATGIPARFSGSGSGTDFTLTISSLEPEDFAVYYCQQRSNWPPFTFGPGTKVDIKR
notes: Hybridoma-derived human IgG1 kappa; also called C420A
B2: GenTNV86.14.34 (antibody, human IgG1, kappa, V domains shown)
VH: B1 VH
VL: B1 VL
notes: The constant region allotype is uncertain, as explained in the m8 note; also called C417A
B3: GenTNV15.28.11 (antibody, V domains shown)
VH: B1 VH with I28T, N43K, M51I, S52L, P75S, T78A, I102V, A103S
VL: EIVLTQSPATLSLSPGERATLSCRASQSVSSYLAWYQQKPGQAPRLLIYDASNRATGIPARFSGSGSGTDFTLTISSLEPEDFAVYYCQQRSNWPPFTFGPGTKVDIK
B4: golimumab (antibody, human IgG1, kappa, V domains shown)
VH: B1 VH with P75S
VL: B1 VL
modifications: N-glycosylated on asparagine 306
notes: Fully human IgG1 kappa; The commercial material is expressed in Sp2/0 cells; also called SIMPONI

Legend:
recombinant human TNFα [1] = molecular target: T2, recombinant human TNFα (human, UniProt P01375 77-233, 125I-labeled in the receptor inhibition assay); assay: competition: 125I-TNFα binding to coated p55-sf2, hybridoma supernatants
T2 construct: It is not expressly tied to the assay protein, so it is not used here; also called huTNFα; tumor necrosis factor alpha
Description: (§1) 50:1 of p55-sf2 at 0.5:g/ml in PBS was added to Optiplates to coat the wells during a one-hour incubation at 37° C. Serial dilutions of the eight TNV cell supernatants were prepared in 96-well round-bottom plates using PBS/0.1% BSA as diluent. […] The mixture was preincubated for one hour at RT. The coated Optiplates were washed to remove unbound p55-sf2 and 50:1 of the ¹²⁵I-TNFα/cell supernatant mixture was transferred to the Optiplates. After 2 hrs at RT, Optiplates were washed three times with PBS-Tween. […] of Microscint-20 was added and the cpm bound determined using the TopCount gamma counter.
A simple binding assay was done to determine whether the eight TNV mAbs contained in hybridoma cell supernatant were capable of blocking TNFα binding to receptor. The concentrations of the TNV mAbs in their respective cell supernatants were first determined by standard ELISA analysis for human IgG.

recombinant human TNFα [2] = molecular target: T2, recombinant human TNFα; assay: cell-based or functional assay
recombinant human TNFα [3] = molecular target: T2, recombinant human TNFα; assay: competition radioligand assay: mAb in hybridoma supernatant preincubated with 5 ng/ml 125I-TNFα, then binding of 125I-TNFα to plate-coated p55-sf2 counted as cpm bound
Description: Varying amounts of hybridoma cell supernatants containing known amounts of TNV mAb were preincubated with a fixed concentration (5 ng/ml) of ¹²⁵I-labeled TNFα. […] The amount of TNFα that bound to the p55 receptor in the presence of the mAbs was determined after washing away the unbound material and counting using a gamma counter. […] Each sample was tested in duplicate. The results shown are representative of two independent experiments.
as §1
A simple binding assay was done to determine whether the eight TNV mAbs contained in hybridoma cell supernatant were capable of blocking TNFα binding to receptor.

human lymphotoxin = molecular target: T1, human lymphotoxin; assay: not described

Binder | fold better at blocking TNF binding (against TNV118 and TNV14) (recombinant human TNFα [1]) | neutralizing TNFα bioactivity (recombinant human TNFα [2]) | IC50 (read off the curve) (recombinant human TNFα [3]) | binding result (human lymphotoxin)
B1 | ~4 fold | 4 fold | ~3 ng/mL | –
B2 | ~4 fold | – | – | –
B3 | – | – | ~3 ng/mL | –
B4 | – | – | – | no binding
